The assay deals with Fc-tagged CD147 (UniProt P35613).
UniProt P35613, sequence (P35613 138-325): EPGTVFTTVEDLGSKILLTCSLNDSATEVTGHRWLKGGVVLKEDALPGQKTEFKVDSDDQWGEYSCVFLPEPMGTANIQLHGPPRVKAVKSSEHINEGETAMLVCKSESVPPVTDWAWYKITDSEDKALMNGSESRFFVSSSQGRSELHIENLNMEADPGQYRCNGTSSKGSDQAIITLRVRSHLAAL

As to “recombinant human cyclophilin B (from UniProt P23284 34-216) (natural protein)”, the SARS-CoV-2 uptake by human monocytes (N protein RNA by RT-qPCR, 24 hpi) after pretreatment with recombinant human CypA and CypB together (each 10 µg/ml) as a decoy; CD147 endogenous on the monocytes (fold decrease) was found to be 2.7.

The values above are taken from publication PMC11830813.
